Data reported in patent US20250223317A1, “KEAP1 INHIBITING PROTEIN-LIKE POLYMERS” (NORTHWESTERN UNIVERSITY, priority 2022, published 2025).

System: Antioxidant Response Element (ARE) Luciferase HepG2 Reporter cells
Method: Cells were plated at a seeding density of 25k cells/well into 96 well plates in cell growth media and allowed to incubate for 24 hours. […] After 24 hours, 10 μL of MTS reagent was added to each well, and the cells incubated for four hours at 37° C. Absorbance was measured at 490 nm using a Perkin Elmer EnSpire plate reader every hour after MTS addition. Viability was assessed after background subtraction from cell free control wells and calculated as relative viability based on the average of control wells. Viability is reported as a percentage of control groups and prepared for presentation using Prism9.
The reporter and cell viability assays were performed over a concentration range of 0 μM to 10 μM for each of the polymers described.
Cells were plated at a seeding density of 25k cells/well into 96 well plates in cell growth media and allowed to incubate for 24 hours. […] Luminescence was assessed using the Biotek SynergyNeo2 plate reader at the High Throughput Analysis Core at Northwestern University. Background luminescence of cell free controls wells was subtracted from test wells. […] Absorbance was measured at 490 nm using a Perkin Elmer EnSpire plate reader every hour after MTS addition. Viability was assessed after background subtraction from cell free control wells and calculated as relative viability based on the average of control wells. […]

Substance: DLG Homopolymer (RQDIDLGVSRR)
- tolerability (MTS assay): well tolerated
